± gives the uncertainty stated by the source.
Assay: self-splicing fitness, log relative to wild type (ln ratio); higher = more splicing; Tetrahymena group I intron in knt gene, E. coli kanamycin selection, DiMSum; sequences stand for … in CUCUCU…GGAGGGAAAAGUUAUCAGGCAUGCACCUGGUAGCUAGUCUUUAAACCAAUAGAUUGCAUCGGUUUAAAAGGCAAGACCGUCAAAUUGCGGGAAAGGGGUCAACAGCCGUUCAGUACCAAGUCUCAGGGGAAACUUUGAGAUGGCCUUGCAAAGGGUAUGGUAAUAAGCUGACGGACAUGGUCCUAACCACGCAGCCAAGUCCUAAGUCAACAGAUCUUCUGUUGAUAUGGAUGCAGUUCACAGACUAAAUGUCGGUCGGGGAAGAUGUAUUCUUCUCAUAAGAUAUAGUCGGACCUCUCCUUAAUGGGAGCUAGCGGAUGAAGUGAUGCAACACUGGAGCCGCUGGGAACUAAUUUGUAUGCGAAAGUAUAUUGAUUAGUUUUGGAGUACUCGUGGUCG
How it was run: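 Pooled colonies went to amplicon sequencing on an Illumina HiSeq 2500 after six replicate transformations. The plates were LB agar with 100 μg/mL carbenicillin, 50 μM IPTG and 0.2% rhamnose, with or without 25 μg/mL kanamycin, incubated overnight at 37°C or 30°C. The E. coli BL21(DE3) library had all eight P1ex-region intron nucleotides randomised, the intron placed in the knt kanamycin-resistance gene on pET-22b(+). DiMSum fitness is the error-weighted combination of replicate fold changes, kanamycin against none, normalised to wild type.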

Row | Sequence | self-splicing fitness (ln) (30 °C) | self-splicing fitness (ln) (37 °C)
1 | GCGCAGCAAUAUUACGAGUG | -1.6 ± 0.1 | -1.47 ± 0.15
2 | GCGCAGCAAUAUUACGCAGC |  | -1.32 ± 0.33
3 | GCGCAGCAAUAUUACGCCAC |  | -1.17 ± 0.36
4 | GCGCAGCAAUAUUACGCCCG | -1.59 ± 0.2 | 0.0341 ± 0.27
5 | GCGCAGCAAUAUUACGCCGU | -1.57 ± 0.13 | -2.07 ± 0.27
6 | GCGCAGCAAUAUUACGCCUG | -2.75 ± 0.15 | -1.48 ± 0.15
7 | GCGCAGCAAUAUUACGCGCA | -4.09 ± 0.32 | 0.322 ± 0.13
8 | GCGCAGCAAUAUUACGCUAU | -0.914 ± 0.096 | -0.406 ± 0.12
9 | GCGCAGCAAUAUUACGCUGA | -1.16 ± 0.12 | -0.667 ± 0.1
10 | GCGCAGCAAUAUUACGGAAU | -1.12 ± 0.13 | -0.337 ± 0.15
11 | GCGCAGCAAUAUUACGGACU | -0.744 ± 0.12 | -0.35 ± 0.12
12 | GCGCAGCAAUAUUACGGAGA | -4.36 ± 0.42 | -1.69 ± 0.19
13 | GCGCAGCAAUAUUACGGCUG | -3.01 ± 0.3 | -1.7 ± 0.29
14 | GCGCAGCAAUAUUACGGGCG | -3.71 ± 0.47 | -3.03 ± 0.4
15 | GCGCAGCAAUAUUACGGUGA | -0.545 ± 0.066 | -0.107 ± 0.086
16 | GCGCAGCAAUAUUACGUAAU | -0.192 ± 0.061 | 0.31 ± 0.07
17 | GCGCAGCAAUAUUACGUACC | -1.63 ± 0.11 | -0.655 ± 0.13
18 | GCGCAGCAAUAUUACGUACG | -3.47 ± 0.2 | -1.09 ± 0.16
19 | GCGCAGCAAUAUUACGUAUA | -1.31 ± 0.06 | -1.05 ± 0.081
20 | GCGCAGCAAUAUUACGUCGU | -3.02 ± 0.12 | -2.75 ± 0.18
21 | GCGCAGCAAUAUUACGUCUU | -0.65 ± 0.049 | 0.336 ± 0.064
22 | GCGCAGCAAUAUUACGUGAU | -0.659 ± 0.063 | 0.488 ± 0.083
23 | GCGCAGCAAUAUUACGUGGU | -2.14 ± 0.081 | -1.02 ± 0.086

Row | Sequence | self-splicing fitness (ln) (30 °C) | self-splicing fitness (ln) (37 °C)
24 | GCGCAGCAAUAUUACGUUUU | -0.735 ± 0.049 | -0.277 ± 0.063
25 | GCGGAGCAAUAUUACGAACG | -3.06 ± 0.29 | -2.41 ± 0.23
26 | GCGGAGCAAUAUUACGACGU | -4.57 ± 0.46 | -2.5 ± 0.3
27 | GCGGAGCAAUAUUACGACUC | -2.06 ± 0.25 | -0.372 ± 0.34
28 | GCGGAGCAAUAUUACGAGGA | -2.26 ± 0.47 | -2.66 ± 0.37
29 | GCGGAGCAAUAUUACGCCAA | -2.32 ± 0.44 | 
30 | GCGGAGCAAUAUUACGCGGC | -3.04 ± 0.48 | 
31 | GCGGAGCAAUAUUACGGAUG | -3.28 ± 0.17 | -1.67 ± 0.22
32 | GCGGAGCAAUAUUACGGCGA | -1.5 ± 0.23 | -1.29 ± 0.28
33 | GCGGAGCAAUAUUACGGGAU | 0.0919 ± 0.27 | 
34 | GCGGAGCAAUAUUACGGGGU | -1.55 ± 0.23 | 
35 | GCGGAGCAAUAUUACGUAGC | -1.91 ± 0.28 | -2.38 ± 0.41
36 | GCGGAGCAAUAUUACGUCUC |  | -2.54 ± 0.38
37 | GCGGAGCAAUAUUACGUGGU | -3.54 ± 0.26 | -3.01 ± 0.4
38 | GCGGAGCAAUAUUACGUGUC | -2.84 ± 0.3 | -1.06 ± 0.43
39 | GCGUAGCAAUAUUACGAAAU | -2.16 ± 0.29 | -0.358 ± 0.24
40 | GCGUAGCAAUAUUACGAAGU | -2.22 ± 0.15 | -1.11 ± 0.16
41 | GCGUAGCAAUAUUACGACGC | -3.7 ± 0.39 | 
42 | GCGUAGCAAUAUUACGCAUC | -3.37 ± 0.5 | -1 ± 0.4
43 | GCGUAGCAAUAUUACGCCGA |  | -2.28 ± 0.47
44 | GCGUAGCAAUAUUACGCUCC | -1.88 ± 0.2 | -0.401 ± 0.39
45 | GCGUAGCAAUAUUACGGACA | -1.31 ± 0.17 | -0.534 ± 0.13

— the supplement of paper PMC7877785
